B1: KCNA1 (parent)
chain: LKASMRELGLLIFFLFIGVILFSS

The text below walks through data of the supplement of paper PMC10567573.
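Further: lentivirally expressed fusions sorted by FACS into six bins by GFP to DsRed ratio, PSI derived from sequencing read proportions per bin multiplied by bin number.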

In this data set the parent is B1. The data set can be described thus: protein stability index of a GFP-peptide fusion (GPS, HEK-293T) (PSI 1-6); higher = more stable. Conditions: c terminus: a fixed tail appended.
Regarding LKASMRELGLLIIFLFIGVILFSS [F13I], the protein stability index came out at 1.77.
Turning to LKASMRELGLLISFLFIGVILFSS [F13S], the protein stability index was determined as 3.56.
In the case of LKASMRELGLLIDFLFIGVILFSS [F13D], the protein stability index came to 3.37.
For the variant LKASMRELGLLIVFLFIGVILFSS [F13V], the protein stability index came to 1.63.
Take LKASMRELGLLILFLFIGVILFSS [F13L]: the protein stability index was determined as 2.16.
For the variant LKASMRELGLLIEFLFIGVILFSS [F13E], the protein stability index was 2.6.
Consider LKASMRELGLLIQFLFIGVILFSS [F13Q], for which the protein stability index worked out at 4.29.
For the variant LKASMRELGLLIRFLFIGVILFSS [F13R], the protein stability index turned out to be 2.03.
LKASMRELGLLIGFLFIGVILFSS [F13G]: the protein stability index turned out to be 2.98.
On to LKASMRELGLLIPFLFIGVILFSS [F13P], for which the protein stability index is 3.61.
Regarding LKASMRELGLLIMFLFIGVILFSS [F13M], the protein stability index came to 1.32.
In the case of LKASMRELGLLIYFLFIGVILFSS [F13Y], the protein stability index was 4.13.
The result for LKASMRELGLLINFLFIGVILFSS [F13N] reads 3.41; that for LKASMRELGLLIAFLFIGVILFSS [F13A], 1.57; that for LKASMRELGLLIHFLFIGVILFSS [F13H], 3.07.
Under LKASMRELGLLIKFLFIGVILFSS [F13K] stands 2.76.
Consider LKASMRELGLLLFFLFIGVILFSS [I12L], for which the protein stability index is 2.86.
The result for LKASMRELGLLKFFLFIGVILFSS [I12K] reads 2.8; that for LKASMRELGLLTFFLFIGVILFSS [I12T], 4.06; that for LKASMRELGLLMFFLFIGVILFSS [I12M], 2.02.
With LKASMRELGLLNFFLFIGVILFSS [I12N], the protein stability index was 3.05.
In the case of LKASMRELGLLVFFLFIGVILFSS [I12V], the protein stability index was determined as 1.35.
Take LKASMRELGLLHFFLFIGVILFSS [I12H]: the protein stability index is 3.35.
With LKASMRELGLLCFFLFIGVILFSS [I12C], the protein stability index worked out at 2.52.
Regarding LKASMRELGLLDFFLFIGVILFSS [I12D], the protein stability index came to 2.94.
For LKASMRELGLLRFFLFIGVILFSS [I12R], the protein stability index came to 4.06.
Consider LKASMRELGLLAFFLFIGVILFSS [I12A], for which the protein stability index is 1.87.
Under LKASMRELGLLEFFLFIGVILFSS [I12E] stands 3.27.
Take LKASMRELGLLGFFLFIGVILFSS [I12G]: the protein stability index amounted to 3.16.
With LKASMRELGLLSFFLFIGVILFSS [I12S], the protein stability index worked out at 1.31.
Under LKASMRELGLLPFFLFIGVILFSS [I12P] stands 1.95; under LKASMRELGLLWFFLFIGVILFSS [I12W], 3.17; under LKASMRELGLLFFFLFIGVILFSS [I12F], 2.38.
Under LKASMRELGLLYFFLFIGVILFSS [I12Y] stands 3.01.
On to LKASMRELGLLQFFLFIGVILFSS [I12Q], for which the protein stability index amounted to 2.17.
Regarding LKASMRELGLLIFFLFWGVILFSS [I17W], the protein stability index worked out at 3.85.
Under LKASMRELGLLIFFLFCGVILFSS [I17C] stands 2.56; under LKASMRELGLLIFFLFGGVILFSS [I17G], 2.88.
As for LKASMRELGLLIFFLFNGVILFSS [I17N], the protein stability index came out at 4.03.
In the case of LKASMRELGLLIFFLFSGVILFSS [I17S], the protein stability index was 2.3.
For LKASMRELGLLIFFLFKGVILFSS [I17K], the protein stability index worked out at 2.83.
The result for LKASMRELGLLIFFLFEGVILFSS [I17E] reads 1.91; that for LKASMRELGLLIFFLFRGVILFSS [I17R], 2.71.
Take LKASMRELGLLIFFLFLGVILFSS [I17L]: the protein stability index is 1.95.
For LKASMRELGLLIFFLFQGVILFSS [I17Q], the protein stability index turned out to be 2.82.
With LKASMRELGLLIFFLFPGVILFSS [I17P], the protein stability index was found to be 2.77.
In the case of LKASMRELGLLIFFLFHGVILFSS [I17H], the protein stability index was 2.85.
For LKASMRELGLLIFFLFFGVILFSS [I17F], the protein stability index was determined as 2.79.
The result for LKASMRELGLLIFFLFTGVILFSS [I17T] reads 2.48; that for LKASMRELGLLIFFLFYGVILFSS [I17Y], 2.24.
LKASMRELGLLIFFLFVGVILFSS [I17V]: the protein stability index was 2.74.
The result for LKASMRELGLLIFFLFDGVILFSS [I17D] reads 2.29; that for LKASMRELGLLIFFLFAGVILFSS [I17A], 2.83.
On to LKASMRELGLLIFFLFMGVILFSS [I17M], for which the protein stability index was 3.35.
For the variant LKASMRELGLLIFFLFISVILFSS [G18S], the protein stability index amounted to 3.74.
The result for LKASMRELGLLIFFLFIMVILFSS [G18M] reads 2.2; that for LKASMRELGLLIFFLFIFVILFSS [G18F], 3.9; that for LKASMRELGLLIFFLFIPVILFSS [G18P], 1.86.
With LKASMRELGLLIFFLFICVILFSS [G18C], the protein stability index was found to be 3.63.
For the variant LKASMRELGLLIFFLFIIVILFSS [G18I], the protein stability index is 4.5.
The result for LKASMRELGLLIFFLFILVILFSS [G18L] reads 1.82; that for LKASMRELGLLIFFLFINVILFSS [G18N], 3.02; that for LKASMRELGLLIFFLFIKVILFSS [G18K], 2.44.
Turning to LKASMRELGLLIFFLFIWVILFSS [G18W], the protein stability index worked out at 2.21.
The result for LKASMRELGLLIFFLFIYVILFSS [G18Y] reads 3.18; that for LKASMRELGLLIFFLFIQVILFSS [G18Q], 2.75; that for LKASMRELGLLIFFLFIDVILFSS [G18D], 1.87.
On to LKASMRELGLLIFFLFIVVILFSS [G18V], for which the protein stability index was 3.15.
The result for LKASMRELGLLIFFLFIAVILFSS [G18A] reads 1.77.
For the variant LKASMRELGLLIFFLFITVILFSS [G18T], the protein stability index was found to be 3.2.
With LKASMRELGLLIFFLFIGSILFSS [V19S], the protein stability index came to 3.99.
For LKASMRELGLLIFFLFIGLILFSS [V19L], the protein stability index came to 1.59.
For LKASMRELGLLIFFLFIGFILFSS [V19F], the protein stability index amounted to 1.99.
Under LKASMRELGLLIFFLFIGNILFSS [V19N] stands 2.33; under LKASMRELGLLIFFLFIGAILFSS [V19A], 2.58.
In the case of LKASMRELGLLIFFLFIGDILFSS [V19D], the protein stability index was 2.65.
For LKASMRELGLLIFFLFIGCILFSS [V19C], the protein stability index was determined as 1.65.
With LKASMRELGLLIFFLFIGIILFSS [V19I], the protein stability index was determined as 2.27.
In the case of LKASMRELGLLIFFLFIGQILFSS [V19Q], the protein stability index was determined as 3.09.
As for LKASMRELGLLIFFLFIGKILFSS [V19K], the protein stability index worked out at 4.72.
As for LKASMRELGLLIFFLFIGWILFSS [V19W], the protein stability index turned out to be 2.1.
For LKASMRELGLLIFFLFIGHILFSS [V19H], the protein stability index came out at 4.02.
As to LKASMRELGLLIFFLFIGYILFSS [V19Y], the protein stability index is 1.86.
For LKASMRELGLLIFFLFIGMILFSS [V19M], the protein stability index was 2.52.
With LKASMRELGLLIFFLFIGRILFSS [V19R], the protein stability index is 2.66.
With LKASMRELGLLIFFLFIGPILFSS [V19P], the protein stability index stood at 2.51.
For LKASMRELGLLIFFLFIGTILFSS [V19T], the protein stability index is 3.34.
For LKASMRELGLLIFFLFIGGILFSS [V19G], the protein stability index worked out at 2.85.
LKASMRELGLLIFFLFIGVIGFSS [L21G]: the protein stability index worked out at 3.19.
In the case of LKASMRELGLLIFFLFIGVIFFSS [L21F], the protein stability index worked out at 3.04.
Turning to LKASMRELGLLIFFLFIGVIHFSS [L21H], the protein stability index was 2.98.
For the variant LKASMRELGLLIFFLFIGVICFSS [L21C], the protein stability index stood at 2.43.
Regarding LKASMRELGLLIFFLFIGVIKFSS [L21K], the protein stability index was determined as 1.88.
Turning to LKASMRELGLLIFFLFIGVIPFSS [L21P], the protein stability index was 2.86.
